Consider one molecule from paper PMC10013841 (Proceedings of the National Academy of Sciences of the …, 2023).

For this experiment, the target named is SARS-CoV-2 Spike S1 domain (amino acids 14 to 681), HEK293-produced (SARS-CoV-2, UniProt P0DTC2 14-681). Kind of experiment: far-Western, overlay or dot blot. Particulars: both partners purified.

B1: cyanovirin-N (natural protein)
chain: LGKFSQTCYNSAIQGSVLTSTCERTNGGYNTSSIDLNSVIENVDGSLKWQPSNFIETCRNTQLAGSSELAAECKTRAQQFVSTKINLDDHIANIDGTLKYE
notes: also called CV-N
As to B1, the binding result is recorded as “binds”.
